Test results published in patent US20140322307A1 (LIPOTEC S A, published 2014).

T1: Proteinase-Activated Receptor-2 (human, on human keratinocytes) (human, UniProt P55085 37-397)
T1 sequence (looked up): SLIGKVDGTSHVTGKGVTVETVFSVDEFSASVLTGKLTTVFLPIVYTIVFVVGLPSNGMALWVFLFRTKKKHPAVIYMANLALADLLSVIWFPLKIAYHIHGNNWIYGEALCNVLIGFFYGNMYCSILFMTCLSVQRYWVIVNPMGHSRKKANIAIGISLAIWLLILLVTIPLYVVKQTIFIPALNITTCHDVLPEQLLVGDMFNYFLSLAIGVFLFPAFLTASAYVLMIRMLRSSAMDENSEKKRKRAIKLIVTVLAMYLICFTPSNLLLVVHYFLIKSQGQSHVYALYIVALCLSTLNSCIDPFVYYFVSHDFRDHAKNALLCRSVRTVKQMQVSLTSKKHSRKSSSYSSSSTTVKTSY

T2: Proteinase-Activated Receptor-2 (rat, on rat DRG neurons) (rat, UniProt Q63645 37-397)
T2 sequence (looked up): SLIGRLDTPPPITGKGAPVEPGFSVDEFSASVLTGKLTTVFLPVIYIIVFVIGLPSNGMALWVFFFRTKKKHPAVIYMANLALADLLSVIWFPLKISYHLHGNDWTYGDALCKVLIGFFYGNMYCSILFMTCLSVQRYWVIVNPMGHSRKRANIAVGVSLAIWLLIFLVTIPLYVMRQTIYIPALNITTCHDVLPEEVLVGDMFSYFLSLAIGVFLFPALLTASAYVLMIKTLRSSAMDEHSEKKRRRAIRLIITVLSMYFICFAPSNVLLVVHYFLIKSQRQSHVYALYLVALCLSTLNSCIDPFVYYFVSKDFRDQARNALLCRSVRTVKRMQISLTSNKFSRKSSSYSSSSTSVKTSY


How the values were obtained:
[1] = molecular target: T1, Proteinase-Activated Receptor-2 (human, …); assay: cell-based or functional assay
[2] = molecular target: T2, Proteinase-Activated Receptor-2 (rat, …); assay: cell-based or functional assay

Inhibition PAR-2 activity (calcium fluorescence, human keratinocytes, peptide at 1 mg/mL) [1] [%] | PAR-2 activity (calcium fluorescence, human keratinocytes, peptide at 1 mg/mL) [1] [%] | % CGRP (release from rat DRG neurons after PAR-2 agonist I and capsaicin; peptide at 25 µg/mL) [2] [%] | % CGRP (release from rat DRG neurons after PAR-2 agonist I and capsaicin; peptide at 0.5 mg/mL) [2] [%] | Binder
43.3 | 56.7 | – | – | Ac-SMWFIV-NH2 [Ac-L-Ser-L-Met-L-Trp-L-Phe-L-Ile-L-Val-NH2]
13.9 | 86.1 | – | – | Ac-FFWFIV-NH2 [Ac-L-Phe-L-Phe-L-Trp-L-Phe-L-Ile-L-Val-NH2]

Further lines, the binder ahead of its results:

Binder | Inhibition PAR-2 activity (calcium fluorescence, human keratinocytes, peptide at 1 mg/mL) [1] [%] | PAR-2 activity (calcium fluorescence, human keratinocytes, peptide at 1 mg/mL) [1] [%] | % CGRP (release from rat DRG neurons after PAR-2 agonist I and capsaicin; peptide at 25 µg/mL) [2] [%] | % CGRP (release from rat DRG neurons after PAR-2 agonist I and capsaicin; peptide at 0.5 mg/mL) [2] [%]
Ac-FMWFHV-NH2 [Ac-L-Phe-L-Met-L-Trp-L-Phe-L-His-L-Val-NH2] | 76.5 | 23.5 | 70.1 | 20.2
Ac-FFWFHV-NH2 [Ac-L-Phe-L-Phe-L-Trp-L-Phe-L-His-L-Val-NH2] | 67.8 | 32.2 | 58.9 | 17.7
Ac-FFWDIV-NH2 [Ac-L-Phe-L-Phe-L-Trp-L-Asp-L-Ile-L-Val-NH2] | 67.4 | 32.6 | 78.7 | 20.3
